# In publication PMC10254243:
# Tests used:
# [1] = target: 5-enolpyruvylshikimate-3-phosphate synthase (EPSPS) from Agrobacterium sp. strain CP4 (CP4-EPSPS) (Agrobacterium sp. strain CP4) (UniProt Q9R4E4); assay: SEC; Enrich SEC 650 column on FPLC, PBS pH 7.2, 25 °C, 0.5 mL/min, calibrated with Gel Filtration Standard; after Ni-NTA affinity chromatography
# [2] = target: 5-enolpyruvylshikimate-3-phosphate synthase (EPSPS) from Agrobacterium sp. strain CP4 (CP4-EPSPS) (Agrobacterium sp. strain CP4) (UniProt Q9R4E4); assay: native gel or EMSA; native-PAGE of the purified CP4-EPSPS protein (10 μg)
substance,measurement,setting,value
5-enolpyruvylshikimate-3-phosphate synthase (EPSPS) from Agrobacterium sp. strain CP4 (CP4-EPSPS) (from UniProt Q9R4E4 1-455) (enzyme),stoichiometry N,[1],2
same,stoichiometry N,[2],2
